Measurements published in patent publication US20110091968A1 (KABUSHIKI KAISHA HAYASHIBARA SEIBUTSU KAGAKU KENKYUJO, published 2011).

Experiments:
Assay in all cases: Western blotting
[1] = target: T1, human tumor necrosis factor (human, UniProt P01375 77-233)
T1 construct: also called human TNFα; TNFα

human IFNβ = human IFNβ (human, UniProt P01574 22-187)
human IFNγ = target: T2, human IFNγ (human, UniProt P01579 24-166, limits assumed)
T2 sequence (looked up): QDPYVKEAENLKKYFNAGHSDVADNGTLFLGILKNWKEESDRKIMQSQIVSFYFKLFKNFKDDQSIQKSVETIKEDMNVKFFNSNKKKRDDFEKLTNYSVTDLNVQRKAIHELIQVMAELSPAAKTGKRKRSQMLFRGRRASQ

[2] = target: T3, recombinant human IFNα subtype α5 (human, UniProt P01569 24-189, limits assumed)
T3 construct: also called rIFNα5; IFNα5
Excerpt: (§1) Proteins, contained in a part of the gel ranging from about 20 to about 29 kilo daltons (abbreviated as “kDa”, hereinafter) corresponding to the molecular weights of the proteins of IFNs, were transferred to a nitrocellulose membrane and soaked in “BlockAce”, a product name of a blocking solution to inhibit non-specific reaction commercialized by Dainippon Sumitomo Pharma, Co., Ltd., Tokyo, Japan. The resulting nitrocellulose membrane after the blocking treatment was soaked in a solution, containing 2 μg/ml of any of the nine monoclonal antibodies purified by using PROTEIN G SEPHAROSE, at ambient temperature for one hour, and washed with 50 mM Tris-HCl buffer (pH 7.5) containing 0.05% (v/v) tween 20 to remove excessive amounts of antibodies. The resulting nitrocellulose membrane was soaked in a solution containing an HRP labelled anti-mouse immunoglobulin or anti-rat immunoglobulin (both of which are commercialized by DakoCytomation, Denmark) at ambient temperature for one hour. The resulting membrane was washed with 50 mM Tris-HCl buffer (pH 7.5) containing 0.05% (v/v) tween 20 for 30 min and subjected to a color reaction by using commercialized “ECL western blotting detection reagent and Hyperfilm ECL”, a product name of a Western blotting detection kit commercialized by GE Healthcare Biosciences, Tokyo, Japan.

[3] = target: T4, recombinant human IFNα subtype α6 (human, UniProt P05013 24-189, limits assumed)
T4 construct: also called rIFNα6; IFNα6
Excerpt: as §1

[4] = target: T5, recombinant human IFNα subtype α10 (human, UniProt P01566 24-189)
T5 construct: also called rIFNα10; IFNα10
Excerpt: as §1

[5] = target: T6, recombinant human IFNα subtype α1 (human, UniProt P0DY56 24-189)
T6 construct: also called rIFNα1; IFNα1
Excerpt: as §1

Measured: binding result

Chain of human IFNβ (P01574 22-187 limits assumed): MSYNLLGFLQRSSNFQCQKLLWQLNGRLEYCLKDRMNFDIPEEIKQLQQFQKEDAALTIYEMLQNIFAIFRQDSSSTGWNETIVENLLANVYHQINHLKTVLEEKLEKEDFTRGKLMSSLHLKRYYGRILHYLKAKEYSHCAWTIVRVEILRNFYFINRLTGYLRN
T6 sequence (P0DY56 entry or part of it limits assumed): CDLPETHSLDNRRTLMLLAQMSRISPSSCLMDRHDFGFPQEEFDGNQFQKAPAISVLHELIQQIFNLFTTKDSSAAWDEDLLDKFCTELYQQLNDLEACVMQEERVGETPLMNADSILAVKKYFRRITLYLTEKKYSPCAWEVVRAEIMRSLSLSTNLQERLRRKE
T1 sequence (P01375 77-233 limits assumed): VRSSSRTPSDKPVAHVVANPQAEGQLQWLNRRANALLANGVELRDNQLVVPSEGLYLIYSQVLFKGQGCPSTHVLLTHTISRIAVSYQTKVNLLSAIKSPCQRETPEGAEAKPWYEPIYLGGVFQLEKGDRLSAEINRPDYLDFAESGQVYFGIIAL
T5 sequence (P01566 24-189 limits assumed): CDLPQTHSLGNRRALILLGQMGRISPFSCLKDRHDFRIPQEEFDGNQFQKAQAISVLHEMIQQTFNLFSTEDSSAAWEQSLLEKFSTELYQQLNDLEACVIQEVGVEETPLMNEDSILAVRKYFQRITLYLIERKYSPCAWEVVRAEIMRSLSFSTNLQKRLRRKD
T4 sequence (P05013 24-189 limits assumed): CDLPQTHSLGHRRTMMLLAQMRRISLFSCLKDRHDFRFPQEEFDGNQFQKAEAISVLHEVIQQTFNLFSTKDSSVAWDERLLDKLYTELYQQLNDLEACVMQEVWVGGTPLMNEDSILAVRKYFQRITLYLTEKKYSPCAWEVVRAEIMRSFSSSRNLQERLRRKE
T3 sequence (P01569 24-189 limits assumed): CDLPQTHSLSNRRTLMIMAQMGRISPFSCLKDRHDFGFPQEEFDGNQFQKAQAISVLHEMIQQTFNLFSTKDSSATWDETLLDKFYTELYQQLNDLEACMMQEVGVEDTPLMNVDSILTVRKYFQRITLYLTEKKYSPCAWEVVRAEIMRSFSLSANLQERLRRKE

B1: α8Y36-2 mAb (antibody, IgG1, V domains shown)
VH: EVQLVESGGGLVQPGRSLKLSCAASGFTFSKYGMAWVRQAPTKGLEWVASISTGGYNTYYRDSVKGRFTISRDNAKNTQYLQMDSLRSEDTATYYCTRPPAFDHWGQGIMVTVSS
VL: DIKMTQSPSFLSASVGDRVTINCKASQNIDKYLNWYQQKLGKAPRLLMYNTNNLQTGIPSRFSGSGSTTDFTLTISSLQPEDVATYFCSHHSVRPYTFGAGTKLELK
notes: also called mAb-IFNα8Y36-2; FERM BP-11082
no binding: all assays above

B2: α8#139 mAb (antibody, IgG1, V domains shown)
VH: QVQLKQSGPGLVQPSQSLSITCTVSGFSLTSYGVHWIRQSPGKGLEWLGVIWSGGNTDYNAAFISRLSITKDNSKSQFFFKMNSLQAKDTAIYYCARGRGNYVPFTYWGQGTLVTVSA
VL: QIVLTQSPTIMSASLGERVTMTCTASSSVSSTYLHWYQQKPGSSPKLLIYSTSNLASGVPARFSGSGSGTSYSLTISNMEAEDAATYYCHQYHRSPPMTFGGGTKLEIK
notes: HRP-labelled where used as labelled antibody; also called FERM BP-11081
no binding: all assays above
